Results taken from PMC9090332, “Reconstitution of surface lipoprotein translocation through the Slam translocon” (eLife, 2022).

Target: T1, E. coli Skp with N-terminal 6xHis tag, purified (E. coli, UniProt P0AEU7 21-161)
T1 sequence (looked up): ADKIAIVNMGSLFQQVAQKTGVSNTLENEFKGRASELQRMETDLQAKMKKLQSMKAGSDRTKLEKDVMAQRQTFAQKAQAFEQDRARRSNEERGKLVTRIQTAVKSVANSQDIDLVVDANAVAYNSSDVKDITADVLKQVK
Test: cell-based or functional assay

B1: Moraxella catarrhalis transferrin binding protein B, C-terminal flag-tag (natural protein)
chain: CGGSGGSNPPAPTPIPNASGSGNTGNTGNAGGTDNTANAGNTGGASSGTGSANTPEPKYQDVPTDKNEKEQVSPIQEPAMGYGMALSKINLHNRQDTPLDEKNIITLDGKKQVAEGKKSPLPFSLDVENKLLDGYIAKMDKADKNAIRRRIESENKAKPLSEAELAEKIKEAVRKSYEFQQVMTSLENKIFHSNDGTTKATTRDLQYVDYGYYLANDANYLTVKTDKPKLWNSGPVGGVFYNGSTTAKELPTQDAVKYKGHWDFMTDVANKGNRFSEVKGTRQAGWWYGASSKDEYNRLLTDEKNKPDGYNGEYGHSSEFTVNFKEKKLTGGLFSNLQDSHKQKVTKTKRYDIDANIHGNRFRGSAIASDKEKDSETKHPFTSDAKDRLEGGFYGPKGEELAGKFLTDDNKLFGVFGAKQESKADKTEAILDAYALGAFNKNDANTFTPFTKKQLDNFGNAKKLVLGSTVINLVSTDATKNEFTEDKPKSATNKAGETLMVNDKVSVKTYGYGRNFEYLKFGELSVGGSHSVFLQGERTATTGDKAVPTEGKAKYLGNWVGYITGTGTGKSFNEAQDIADFDIDFKNKTVNGKLTTKGRTDPVFNITGEISGNGWTGKASTAKADAGGYNIDSNGTNKSIVIRDADVTGGFYGPNATEMGGSFTHNTNDSKASVVFGTKRQEEVKP
modifications: lipidated (processed by Lgt, Lsp, and Lnt)
- protection of urea-unfolded purified TbpB from proteinase K with Skp (and LolA) added to empty liposomes, against SurA + Slam1 proteoliposomes (3.5% protection): ≤ 10%
